Here are results for five molecules from patent publication US20200171161A1 (Bicycle, published 2020).

In general, Kd refers to the free concentration of one partner at which half of the binding sites on the other are occupied at equilibrium, for simple one-to-one binding. A high value points to weaker binding.

Numbered stars: 1 amine (or outer) side, 2 acyl side, 3 side chain; on linkers, the order of the positions; unused ones are H or OH. Bridge positions count the residues as written; N and C are the ends. Square brackets hold non-standard residues; d marks the D form. Ends that are not written are not given here. * marks the point of attachment. DOTA = O=C(O)CN1CCN(CC(=O)O)CCN(CC(=O)*)CCN(CC(=O)O)CC1; Phe(4-Br) = N[C@@H](Cc1ccc(Br)cc1)C(=O)O; 1Nal = N[C@@H](Cc1cccc2ccccc12)C(=O)O; TBMB = c1c(C[*:1])cc(C[*:3])cc1C[*:2]; Tle = CC(C)(C)[C@H](N)C(=O)O; βAla = NCCC(=O)O; Sar = CNCC(=O)O

Assay [1] has as its target T1, dog MT1-MMP hemopexin domain (dog).
T1 construct: domain: hemopexin domain
Nature of the assay: FP competition, dog hemopexin domain. As to the method:
(§1) Subsequently, the non-fluorescent competitor bicyclic peptide (usually just the bicycle core sequence) is titrated, such that it displaces the fluorescent tracer from the target protein. The displacement of the tracer is measured and associated with a drop in fluorescence polarisation. The drop in fluorescence polarisation is proportional to the fraction of target protein bound with the non-fluorescent titrant, and thus is a measure of the affinity of titrant to target protein.

The target of assay [2] is T2, human MT1-MMP hemopexin domain (hemopexin-like repeats, residues Cys319-Gly511), N-terminally His6-tagged … (human, UniProt P50281 319-511).
T2 construct: range 319-511; Secreted from HEK293 cells; also called hemopexin protein; MT1-MMP (=MMP-14); not shown: N-terminal His6 tag from pEXPR-IBA42 vector
Nature of the assay: Kd, method not named in table (FP competition by the methods).

For assay [3], the target named is T2, human MT1-MMP hemopexin domain …. The assay can be described thus: FP competition vs MT1-MMP hemopexin domain (tracer not given). As for the experimental part: as §1

B1: 17-69-07-N219, G-Sar10-A-(17-69-07) (non-stabilised with spacer) (peptide)
peptide: G[Sar][Sar][Sar][Sar][Sar][Sar][Sar][Sar][Sar][Sar]ACYNEFGCEDFYDIC-NH2
modifications: linker 13-19-26 via TBMB
Consider B1, for which the Kd in assay [1] was 0.9 nM.

B2: 17-69-07-N248, DOTA-A-(17-69-07) D-Ala1 1Nal4 D-Ala5 4BrPhe9 tBuGly11 (peptide)
chain: {DOTA}-AC[dA]NE[1Nal][dA]CEDF[Phe(4-Br)]D[Tle]C-NH2
modifications: linker 2-8-15 via TBMB
SMILES: C[C@H](NC(=O)CN1CCN(CC(=O)O)CCN(CC(=O)O)CCN(CC(=O)O)CC1)C(=O)N[C@H]1CSCc2cc3cc(c2)CSC[C@H](NC(=O)[C@@H](C)NC(=O)[C@H](Cc2cccc4ccccc24)NC(=O)[C@H](CCC(=O)O)NC(=O)[C@H](CC(N)=O)NC(=O)[C@@H](C)NC1=O)C(=O)N[C@@H](CCC(=O)O)C(=O)N[C@@H](CC(=O)O)C(=O)N[C@@H](Cc1ccccc1)C(=O)N[C@@H](Cc1ccc(Br)cc1)C(=O)N[C@@H](CC(=O)O)C(=O)N[C@@H](C(C)(C)C)C(=O)N[C@H](C(N)=O)CSC3
Regarding B2, the dissociation constant Kd in assay [2] was determined as 0.5 nM.

B3: 17-69-07-N100, Ac-(17-69-07) tBuGly11 (peptide)
chain: Ac-CYNEFGCEDFYD[Tle]C-NH2
modifications: linker 1-7-14 via TBMB
Turning to B3, in assay [3], binding was put at a Kd of 1.56 nM.

B4: 17-69-07-N252, Ac-(17-69-07) D-Ala1 1Nal4 D-Ala5 4BrPhe9 tBuGly11 (peptide)
chain: Ac-C[dA]NE[1Nal][dA]CEDF[Phe(4-Br)]D[Tle]C-NH2
modifications: linker 1-7-14 via TBMB
SMILES: CC(=O)N[C@H]1CSCc2cc3cc(c2)CSC[C@H](NC(=O)[C@@H](C)NC(=O)[C@H](Cc2cccc4ccccc24)NC(=O)[C@H](CCC(=O)O)NC(=O)[C@H](CC(N)=O)NC(=O)[C@@H](C)NC1=O)C(=O)N[C@@H](CCC(=O)O)C(=O)N[C@@H](CC(=O)O)C(=O)N[C@@H](Cc1ccccc1)C(=O)N[C@@H](Cc1ccc(Br)cc1)C(=O)N[C@@H](CC(=O)O)C(=O)N[C@@H](C(C)(C)C)C(=O)N[C@H](C(N)=O)CSC3
B4 gave a Kd in assay [3] of 0.8 nM.

B5: 17-69-07-N241, bAla-Sar10-A-(17-69-07) D-Ala1 1Nal4 D-Ala5 tBuGly11 (peptide)
peptide: [βAla][Sar][Sar][Sar][Sar][Sar][Sar][Sar][Sar][Sar][Sar]AC[dA]NE[1Nal][dA]CEDFYD[Tle]C-NH2
modifications: linker 13-19-26 via TBMB; N-terminus assumed
SMILES: C[C@H](NC(=O)CN(C)C(=O)CN(C)C(=O)CN(C)C(=O)CN(C)C(=O)CN(C)C(=O)CN(C)C(=O)CN(C)C(=O)CN(C)C(=O)CN(C)C(=O)CN(C)C(=O)CCN)C(=O)N[C@H]1CSCc2cc3cc(c2)CSC[C@H](NC(=O)[C@@H](C)NC(=O)[C@H](Cc2cccc4ccccc24)NC(=O)[C@H](CCC(=O)O)NC(=O)[C@H](CC(N)=O)NC(=O)[C@@H](C)NC1=O)C(=O)N[C@@H](CCC(=O)O)C(=O)N[C@@H](CC(=O)O)C(=O)N[C@@H](Cc1ccccc1)C(=O)N[C@@H](Cc1ccc(O)cc1)C(=O)N[C@@H](CC(=O)O)C(=O)N[C@@H](C(C)(C)C)C(=O)N[C@H](C(N)=O)CSC3
notes: also called βAla-Sar10-A-C(D-Ala)NE(1Nal)(D-Ala)CEDFYD(tBuGly)C
Regarding B5, the Kd in assay [1] amounted to 1.4 nM.
